Source: the supplement of paper PMC9170038

System: MS2 coat protein
Experiment: apparent KD of MS2 coat protein, switch ON state; designed switch direction (-1 OFF switch, 1 ON switch): -1; higher = weaker reporter binding
Conditions: FMN input: 0 or 200 uM; Eterna round: R93 (includes R88 designs)
Procedure, shortened: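 Designed RNA switches, transcribed on-chip from Illumina sequencing clusters, were titrated with SNAP-549-labelled MS2 coat protein from 0.7 or 1.5 nM to 3 µM in twofold steps. The solution was 100 mM Tris-HCl pH 7.5, 80 mM KCl, 4 mM MgCl2, with constant ligand or without it. Apparent KD is the median over each design's normalised cluster binding-curve fits.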

For “AAAAAUCGAGGAUAUACAUGAGGAUCACCCAUGUUGGAAAACGAUUACACAAAAGAAAGUAGAAGGCGAUAAAA [Ex 3 May 21]”, which “apparent KD of MS2 coat protein” value is on record?
Its value is 16.5 nM.

“AAGAUGUAAGGAUAUGCUGCUCGUCACAAAAGUGAUGAGUAGCAGAAGGUACAUGAGGAUCACCCAUGUAAAGA [JL eternac mod 10]” was tested. Which “apparent KD of MS2 coat protein” value did it give?
Its value is 31.5 nM.

Which “apparent KD of MS2 coat protein” value does the source give for “UAUAACCAAGGAUAUACUAACGAAACUAAUGCAUAUAUAUAACAUGAGGAUCACCCAUGUAGAAGGUGGAGAAU [JR_Exc002_Sub012]” here?
Its value is 60.5 nM.

For “AACUGUACAGGAUAUACAUGAGGAUCACCCAUGUGAGAAUUAAGUGGAGAACCACAAAGUAGAAGGGUACAGGA [Mat - Exclusion 3 - JL mod - D17]”, which “apparent KD of MS2 coat protein” value is on record?
Its value is 45.7 nM.

For “AAAAAACAUGAGGAUCACCCAUGUAAGGAUAUGUAAAAUAAAAGAAAAAUAAAGAAAAGCAGAAGGUAUAUGAA [JL wbt mod 13]”, which “apparent KD of MS2 coat protein” value is on record?
The value was 27.6 nM.

“AAAUACUAAGGAUAUACAUGAGGAUCACCCAUGUACAAACCCGUGGAACGGAUCGUUAGUAGAAGGUGGACAAA [Zaanrion]” was tested. Which “apparent KD of MS2 coat protein” value did it give?
The value was 15.6 nM.

How did the “apparent KD of MS2 coat protein” value turn out when “AAAAGACAUGAGGAUCACCCAUGUGAGGAUAUGCAAAACCCAUAUAAAAAGGGAAAAAGCAGAAGGUACAAAAA [wbt round 1 mod 13]” was run?
Its value is 29.6 nM.

Which “apparent KD of MS2 coat protein” value does the source give for “AGAACGUCAGGAUAUGCAACAACAAGUAAAUAGAGAAGAAGGCAGAAGGGACAUGAGGAUCACCCAUGUAAGAA [e4]” here?
Its value is 44.1 nM.

For “AAAAAACAUGAGGAUCACCCAUGUGAGGAUAUGCUAUGGAAAAUAAAAAUAAAACAUAGCAGAAGGCACAAUGU [Denovo 5]”, which “apparent KD of MS2 coat protein” value is on record?
Its value is 50.9 nM.

“ACAAGACAUGAGGAUCACCCAUGUGAGGAUAUGCUCGGAUGACAUGACGUUAGCUAACGCAGAAGGCACAAUAA [Exclusion 1]” was tested. Which “apparent KD of MS2 coat protein” value did it give?
The value was 28.7 nM.

“AAGAAGUCAGGAUAUGCUGCUCGUCACUUGCGUGAUGAGUAGCAGAAGGGACAUGAGGAUCACCCAUGUAAAGA [Opal 14]” was tested. Which “apparent KD of MS2 coat protein” value did it give?
The value was 50.7 nM.

With “AGGGAGUCAGGAUAUCGGAAAACAAAACAACGAAAAAAAGACGAGAAGGGACAUGAGGAUCACCCAUGUAAGAA [milkweed 17]” as the sequence, how does the “apparent KD of MS2 coat protein” value read?
Its value is 41.4 nM.

For “AACAAACAUGAGGAUCACCCAUGUCAGGAUAUCCGAAAUAAAGAAACAAUAAUAAUAAGGAGAAGGGACUAAAU [Ex1 sub 2]”, which “apparent KD of MS2 coat protein” value is on record?
The value was 35.5 nM.

Which “apparent KD of MS2 coat protein” value does the source give for “GAAAAACAUGAGGAUCACCCAUGUAAGGAUAUGCGAAAAUAAAAUAAAAUAAAAUAAAGCAGAAGGUACAAAAG [Mat - Exclusion 1 - Eli mod - D2]” here?
Its value is 34.7 nM.

“AAAAAACAUGAGGAUCACCCAUGUAAGGAUAUGCUAGGAAAAAGAAAAAUAAAAACUAGCAGAAGGUACAUAAA [JL wbt mod 10]” was tested. Which “apparent KD of MS2 coat protein” value did it give?
Its value is 25.3 nM.

How did the “apparent KD of MS2 coat protein” value turn out when “AACAGUACAGGAUAUACAUGAGGAUCACCCAUGUCAGAAUUAAGCAGCGUAACACAAAGUAGAAGGGUAAUGGA [Ruby 18]” was run?
Its value is 46 nM.

How did the “apparent KD of MS2 coat protein” value turn out when “AAAAAGUCAGGAUAUGCACAAAAAAAAAUAAAAAAAAAAGUGCAGAAGGGACAUGAGGAUCACCCAUGUAAGAU [Mat - Exclusion 4 - Mayanna - D118]” was run?
Its value is 81 nM.

Which “apparent KD of MS2 coat protein” value does the source give for “AGAAAGUCAGGAUAUACGAAAGUGCGAAAGCACACAAGGGAACAUGAGGAUCACCCAUGUAGAAGGGACAAGAA [Diamond 78]” here?
The value was 70.9 nM.

How did the “apparent KD of MS2 coat protein” value turn out when “AAAAAGGUAGGAUAUGCUAAAUAACAUGAAGAAUAAAUAAAACAUGAGGAUCACCCAUGUAGAAGGACCAAAAA [Ex 2 Tesla 1]” was run?
Its value is 25 nM.

Which “apparent KD of MS2 coat protein” value does the source give for “AAAAAACAUGAGGAUCACCCAUGUAAGGAUAUGCAAGCAAGAAGAAAGAACAGAAAAAGCAGAAGGUACAAAAA [Amethyst 72]” here?
The value was 25.3 nM.

For “AAAAAACAUGAGGAUCACCCAUGUGAGGAUAUCUGUAUUCAAUCCUCGGAUUGAAUACAGAGAAGGCACAUGGG [Ex1: 609]”, which “apparent KD of MS2 coat protein” value is on record?
Its value is 13.9 nM.

With “AAAAAGGCAGGAUAUACGUACAUGUCAAAAGACGUGAAGGGACAUGAGGAUCACCCAUGUAGAAGGGUCAAGAA [JL Stem Breaker 19]” as the sequence, how does the “apparent KD of MS2 coat protein” value read?
Its value is 128 nM.

For “AACAGGACAGGAUAUACAUGAGGAUCACCCAUGUGAGAAUUAAGUGGCGUACCACAAAGUAGAAGGGUCCUGGA [Mat - Exclusion 3 - JL mod - D40]”, which “apparent KD of MS2 coat protein” value is on record?
Its value is 44.5 nM.

For “AAGAACCGAGGAUAUACAUGAGGAUCACCCAUGUAAAAGAAAGAGGGAAAAGAGAAAAGUAGAAGGCGGAAGAA [Berenice I]”, which “apparent KD of MS2 coat protein” value is on record?
Its value is 26.2 nM.

“ACUGAUACAGGAUAUACAUGAGUGAAAAAAGUAAAUCCACUACAUGAGGAUCACCCAUGUAGAAGGGUAUCAGA [Ex2 Design 179: Random 5B]” was tested. Which “apparent KD of MS2 coat protein” value did it give?
The value was 52.1 nM.

“AAAGGGCGAGGAUAUACAUGAGGAUCACCCAUGUAAAAAACAUAAUAAAAGAACUUAUGUAGAAGGCGUCCAAA [Meechl Ex3 2 R2 v2]” was tested. Which “apparent KD of MS2 coat protein” value did it give?
Its value is 52.8 nM.

For “AGCUAGUCAGGAUAUACAAACAUGUCAAAAGACGUGAAAAGACAUGAGGAUCACCCAUGUAGAAGGGACUAGCA [Mat - Exclusion 2 - JL mod - D14]”, which “apparent KD of MS2 coat protein” value is on record?
Its value is 29.8 nM.

With “AACUGACAUGAGGAUCACCCAUGUCAGGAUAUGCUUCAUAAAAAAAAAAAAAAAUGAUGCAGAAGGGACAUGAA [Design 25 :P Sub-opt 1]” as the sequence, how does the “apparent KD of MS2 coat protein” value read?
Its value is 13 nM.

For “AACAGUACAGGAUAUACAUGAGGAUCACCCAUGUGAGAAUUAAGUGGCGUACCACAAAGUAGAAGGGUACUGGA [JL Maslow Revisted mod 16]”, which “apparent KD of MS2 coat protein” value is on record?
The value was 35 nM.

How did the “apparent KD of MS2 coat protein” value turn out when “AAAAAUGGAGGAUAUACGUACAUGUCAAAAGACGUGAAGGGACAUGAGGAUCACCCAUGUAGAAGGCUAAAAAA [JL Stem Breaker 7]” was run?
Its value is 80.1 nM.

For “AACAAGUGAGGAUAUCGGAAAUGUAAAUAAGUUUCACAAAACGAGAAGGCACAUGAGGAUCACCCAUGUAAAUA [JR_Exc004_Sub013]”, which “apparent KD of MS2 coat protein” value is on record?
Its value is 32.1 nM.

“GGGCCACAUGAGGAUCACCCAUGUAAGGAUAUGCUAGGGAUGGAAACCAUUACGCAAAGCAGAAGGUACUAAAG [Janelle Amethyst 18 Mod 10 - Jieux - Exclusion 1]” was tested. Which “apparent KD of MS2 coat protein” value did it give?
The value was 26.6 nM.

How did the “apparent KD of MS2 coat protein” value turn out when “AAGAGUAGAGGAUAUACAUGAAAAGAGUCGAAAGACUCAAAACAUGAGGAUCACCCAUGUAGAAGGCUACUCAA [Hyphema Seclusion Mod 62% 3]” was run?
Its value is 137 nM.

For “AAAAAAAAAGGAUAUAAAAAAAAAAGUCAGGAUAUAGGAAACUAGAAGGGACAUGAGGAUCACCCAUGUAAAAA [Meechl Ex4 R2 m0]”, which “apparent KD of MS2 coat protein” value is on record?
Its value is 63.5 nM.

With “AAAUGAUGAGGAUAUACAUGAGGAUCACCCAUGUGUAAAAAUAAAUACACAAAAGAAAGUAGAAGGCAUCAAAG [Mat - Exclusion 3 - Mayanna mod - D119]” as the sequence, how does the “apparent KD of MS2 coat protein” value read?
The value was 27.8 nM.

Which “apparent KD of MS2 coat protein” value does the source give for “AAAAAGUCAGGAUAUACGAAAAAAAAAAAAAAAAAAAAAAAGUAGAAGGGACAUGAGGAUCACCCAUGUAAAAA [Exclusion 4]” here?
The value was 88.9 nM.

With “AAAAAGACAGGAUAUACGUGAAAAAUAAAAAUGUAAAAAAAACAUGAGGAUCACCCAUGUAGAAGGGUCAAAAA [Ecx-I 62% 3]” as the sequence, how does the “apparent KD of MS2 coat protein” value read?
The value was 59.3 nM.

For “AACAGAACAGGAUAUACAUGAGGAUCACCCAUGUCACAACAAAGCAGCGCAACACAAAGUAGAAGGGUUAUGGA [Ruby 14]”, which “apparent KD of MS2 coat protein” value is on record?
The value was 31.8 nM.

How did the “apparent KD of MS2 coat protein” value turn out when “AACAAGGCAGGAUAUACAUGAGGAUCACCCAUGUGAGAAUUAAGUGGCGUAACACAAAGUAGAAGGGCCAUGGA [Ruby 5]” was run?
Its value is 39.5 nM.

With “GAGAGCCGAGGAUAUACAUGAGGAUCACCCAUGUAAAAAAAAAAAAAAAAAAAAUCAUGUAGAAGGCGGCUUUC [hsl_exclusion3]” as the sequence, how does the “apparent KD of MS2 coat protein” value read?
Its value is 234 nM.

“AAACGUUGAGGAUAUACAGAAGGGUAUAAAUCAAAAAAAACACAUGAGGAUCACCCAUGUAGAAGGCAACGAAA” was tested. Which “apparent KD of MS2 coat protein” value did it give?
Its value is 98.9 nM.

With “AAAAAGGGAGGAUAUACAUGAGUAGAUCGUGUAAAAAAAAUACAUGAGGAUCACCCAUGUAGAAGGCCCAAAAA [Ecxl-III]” as the sequence, how does the “apparent KD of MS2 coat protein” value read?
Its value is 96.8 nM.

With “GUGUACAGAGGAUAUACUAAAGCAUGGAAACAUGCAAGAUCACAUGAGGAUCACCCAUGUAGAAGGCUGUACAC [Ex2: 741]” as the sequence, how does the “apparent KD of MS2 coat protein” value read?
Its value is 62.3 nM.

Which “apparent KD of MS2 coat protein” value does the source give for “CCGAGGCGAGGAUAUAUGAAGGACACAACAUUUAGGGUAAGACAUGAGGAUCACCCAUGUAGAAGGCGCGACGC [Ex2_Neo]” here?
Its value is 74.5 nM.

For “CAGGUAUGAGGAUAUACAUAGAUACAGACACAUGUUCAAGUACAUGAGGAUCACCCAUGUAGAAGGCAUAUAUG [Mat - Same state - Mayanna Mod - D106]”, which “apparent KD of MS2 coat protein” value is on record?
The value was 22.3 nM.
